Results from patent US20050100989A1 (MERCK SERONO, published 2005).
Several values for one entry are separate records, joined by “and”; a condition that tells them apart may be missing. Equal values may be shown once. Values belong to the binder of their own block, whether it stands above or below them.

Key:
human FSH receptor [1] = target: T1, human FSH receptor (human, UniProt P23945 18-695); assay: competition with 125I radiolabelled FSH on membrane preparations with human FSH receptor
T1 construct: whole, on cells
T1 sequence (looked up): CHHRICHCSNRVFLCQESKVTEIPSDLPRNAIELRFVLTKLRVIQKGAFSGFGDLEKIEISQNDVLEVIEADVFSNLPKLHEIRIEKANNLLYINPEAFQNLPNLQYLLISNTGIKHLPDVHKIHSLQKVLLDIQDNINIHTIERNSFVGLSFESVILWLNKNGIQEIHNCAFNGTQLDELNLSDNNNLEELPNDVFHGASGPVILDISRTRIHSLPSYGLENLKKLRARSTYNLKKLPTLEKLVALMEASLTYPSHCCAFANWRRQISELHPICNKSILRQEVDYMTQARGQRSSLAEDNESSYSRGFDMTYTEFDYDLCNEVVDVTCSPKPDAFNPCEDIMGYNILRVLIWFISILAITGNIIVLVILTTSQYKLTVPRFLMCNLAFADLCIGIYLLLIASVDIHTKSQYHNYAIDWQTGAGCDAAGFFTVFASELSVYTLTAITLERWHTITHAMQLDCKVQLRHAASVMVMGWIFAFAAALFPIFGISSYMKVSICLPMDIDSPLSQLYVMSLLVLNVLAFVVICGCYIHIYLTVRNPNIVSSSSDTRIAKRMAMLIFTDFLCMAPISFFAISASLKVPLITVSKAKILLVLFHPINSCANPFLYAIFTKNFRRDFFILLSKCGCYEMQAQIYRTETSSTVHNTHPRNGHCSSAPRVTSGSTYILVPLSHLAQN

human FSH receptor [2] = target: T1, human FSH receptor; assay: cell-based or functional assay
human FSH receptor [3] = target: T1, human FSH receptor; assay: cell-based or functional assay; remark: listed apart in the source
human FSH receptor [4] = target: T1, human FSH receptor; assay: competition with 0.4 nM 125I-FSH on CHO membranes bearing human FSHR, filtration, single site model
Procedure: Large batches of CHO cells line which recombinantly express human FSH receptor or human LH receptor were grown and disrupted by nitrogen cavitation (20 min equilibration to 900 psi, followed by rapid pressure release) in 0.025 M Tris pH 7.4 containing 0.25 M sucrose, 10 mM MgCl₂, 1 mM EDTA and one part per thousand Sigma Protease Inhibitor cocktail (p8350). Following preliminary clarification (10 min×1000×g at 4° C.) the membranes fraction was pelletted (60 min×100,000×g×4° C.) by ultracentrifugation. The membranes fraction was resuspended in binding buffer (0.01 M Tris pH 7.4 containing 5 mM MgCl₂), protein concentration estimated by Bradford (BioRad) protein assay and stored frozen at −80° C. for future use. Typically 15 μg of membrane protein appropriately bearing FSHR or LHR was analyzed, per well, in competition assays.
Radioligand binding was evaluated in 96 well plates, 100 μl/sample well. The assay buffer was 0.01 M Tris pH 7.4 containing 5 mM MgCl₂ and 0.1% BSA and 0.3 nM ¹²⁵I-hCG (for LHR) or 0.4 nM ¹²⁵I-FSH (for FSHR). […] Nonspecific binding was determined in the presence of 500 nM unlabeled hCG or FSH. Binding was allowed to equilibrate for 90 min at 37° C. with shaking. […] Bound radioactivity was measured in an HP Cobra II gamma counter using a pre-programmed detection window specific for ¹²⁵I emission. Data were analyzed using a single site model and Graph Pad Prizm software.

Ki (human FSH receptor [1]): 0.86 nM
EC50 (FSHR-coupled cAMP production) (human FSH receptor [2]): 0.039 nM
B1: FSH single β-subunit mutant β E55N/V57T (mutant β-subunit expressed together with the complementary wild type α-subunit) (ligand)
chain 1: not shown
chain 2: NSCELTNITIAIEKEECRFCISINTTWCAGYCYTRDLVYKDPARPKIQKTCTFKNLTYETVRVPGCAHHADSLYTYPVATQCHCGKCDSDSTDCTVRGLGPSYCSFGEMKE
modifications: N-linked glycosylation; extra consensus site at N55 (hyperglycosylated by shift of apparent molecular weight); N-linked glycosylation (glycoprotein made in CHO cells)
notes: also called βE55/V57T

FSHR EC50 (cAMP production) (human FSH receptor [3]): 0.0612 nM and 0.0209 nM
Ki (human FSH receptor [4]): 1.9 nM and 2.3 nM
B2: GM-1 (FSH double glycosylation mutant: α-subunit H83N and β-subunit E55N/V57T) (ligand)
chain 1: not shown
chain 2: B1 chain 2
modifications: N-linked glycosylation (glycoprotein made in CHO-Dukx cells)
notes: Heterodimer; also called GM-1 Lot 1; GM-1 Lot 2
